According to article PMC6555819, “Comprehensive study of nuclear receptor DNA binding provides a revised framework for understanding receptor specificity”:
Numbering of substitutions follows the chain as printed.

B1: NRC3_wobSeed82_DR3_G14A_o1 (dsDNA)
DNA 1: GCATCGAAAGGTCAACGAGGTGAGTATACACCGTTTGCGATTGACAGCGTAGAATGAAGG
DNA 2: CCTTCATTCTACGCTGTCAATCGCAAACGGTGTATACTCACCTCGTTGACCTTTCGATGC
B2: NRC3_wobSeed37_DR1_C7A_o1 (dsDNA)
DNA 1: GCCGTCAAAGGTCAAAGGTCAGTGAAGAGATGACGGGCGATTGACAGCGTAGAATGAAGG
DNA 2: CCTTCATTCTACGCTGTCAATCGCCCGTCATCTCTTCACTGACCTTTGACCTTTGACGGC
B3: NRC3_wobSeed25_DR1_C7A_o1 (dsDNA)
DNA 1: GCCAAAATAGGTCAAAGGTCAAAGTCGAGCCAACCAGCGATTGACAGCGTAGAATGAAGG
DNA 2: CCTTCATTCTACGCTGTCAATCGCTGGTTGGCTCGACTTTGACCTTTGACCTATTTTGGC
B4: NRC3_wobSeed121_DR5_C7A_o1 (dsDNA)
DNA 1: GCCAAAATAGGTCACCGGAAGGTCAAAGTCCGCATGGCGATTGACAGCGTAGAATGAAGG
DNA 2: CCTTCATTCTACGCTGTCAATCGCCATGCGGACTTTGACCTTCCGGTGACCTATTTTGGC
B5: NRC3_wobSeed82_DR3_A15T_o1 (dsDNA)
DNA 1: B1 DNA 1 with A14G, A15T
DNA 2: B1 DNA 2 with T46A, T47C
B6: NRC3_wobSeed89_DR3_G16T_o1 (dsDNA)
DNA 1: GCCTATGTAGGTTAATGGGGTCATTCAGTTTGAAAGGCGATTGACAGCGTAGAATGAAGG
DNA 2: CCTTCATTCTACGCTGTCAATCGCCTTTCAAACTGAATGACCCCATTAACCTACATAGGC
B7: NRC3_wobSeed130_DR5_T29C_o1 (dsDNA)
DNA 1: GCCTCGAAAGGTCGTGCTCAGGTGAGTACACCAAACGCGATTGACAGCGTAGAATGAAGG
DNA 2: CCTTCATTCTACGCTGTCAATCGCGTTTGGTGTACTCACCTGAGCACGACCTTTCGAGGC
B8: NRC3_wobSeed50_DR2_C25T_o1 (dsDNA)
DNA 1: GCCCTAGTTGGTCAGGAGGTCACATACCGGATATGAGCGATTGACAGCGTAGAATGAAGG
DNA 2: CCTTCATTCTACGCTGTCAATCGCTCATATCCGGTATGTGACCTCCTGACCAACTAGGGC
B9: NRC3_wobSeed138_DR5_C7A_o1 (dsDNA)
DNA 1: GCGATAAAGGGTCAGCTAGAGGCCAGAGTATGGAAAGCGATTGACAGCGTAGAATGAAGG
DNA 2: CCTTCATTCTACGCTGTCAATCGCTTTCCATACTCTGGCCTCTAGCTGACCCTTTATCGC
B10: NRC3_wobSeed66_DR2_A17G_o1 (dsDNA)
DNA 1: GCAATACAGGGTCACTGGGCCAGAGTAGGTACGAATGCGATTGACAGCGTAGAATGAAGG
DNA 2: CCTTCATTCTACGCTGTCAATCGCATTCGTACCTACTCTGGCCCAGTGACCCTGTATTGC
B11: NRC3_wobSeed66_DR2_C15T_o1 (dsDNA)
DNA 1: B10 DNA 1 with C15T, G17A
DNA 2: B10 DNA 2 with C44T, G46A
B12: NRC3_wobSeed113_DR4_T8G_o1 (dsDNA)
DNA 1: GCATATGGAGGTTAGCTGGGGTCATTCAGACTAGGCGCGATTGACAGCGTAGAATGAAGG
DNA 2: CCTTCATTCTACGCTGTCAATCGCGCCTAGTCTGAATGACCCCAGCTAACCTCCATATGC
B13: NRC3_wobSeed37_DR1_C7T_o1 (dsDNA)
DNA 1: B2 DNA 1 with A7T
DNA 2: B2 DNA 2 with T54A
B14: NRC3_wobSeed137_DR5_A5G_o1 (dsDNA)
DNA 1: GCATGTGTAGGTTACATCCGGGTCATTCAGGCTATGGCGATTGACAGCGTAGAATGAAGG
DNA 2: CCTTCATTCTACGCTGTCAATCGCCATAGCCTGAATGACCCGGATGTAACCTACACATGC
B15: NRC3_wobSeed137_DR5_T6C_o1 (dsDNA)
DNA 1: B14 DNA 1 with G5A, T6C
DNA 2: B14 DNA 2 with A55G, C56T
B16: NRC3_wobSeed25_DR1_A6G_o1 (dsDNA)
DNA 1: B3 DNA 1 with A6G, A7C
DNA 2: B3 DNA 2 with T54G, T55C
B17: NRC3_wobSeed106_DR4_G23C_o1 (dsDNA)
DNA 1: GCCTCGAAAGGTCGGTTGAGGTCAGTATACGGATAAGCGATTGACAGCGTAGAATGAAGG
DNA 2: CCTTCATTCTACGCTGTCAATCGCTTATCCGTATACTGACCTCAACCGACCTTTCGAGGC
B18: NRC3_wobSeed5_DR0_C4T_o1 (dsDNA)
DNA 1: GCCTTTACGGGTCAAGGTTATAGCACGGGTGGTACGGCGATTGACAGCGTAGAATGAAGG
DNA 2: CCTTCATTCTACGCTGTCAATCGCCGTACCACCCGTGCTATAACCTTGACCCGTAAAGGC
B19: NRC3_wobSeed5_DR0_G9A_o1 (dsDNA)
DNA 1: B18 DNA 1 with T4C, G9A
DNA 2: B18 DNA 2 with C52T, A57G
B20: NRC3_wobSeed5_DR0_A22C_o1 (dsDNA)
DNA 1: B18 DNA 1 with T4C, A22C
DNA 2: B18 DNA 2 with T39G, A57G
B21: NRC3_wobSeed61_DR2_T5C_o1 (dsDNA)
DNA 1: GCCGCCCAAGGTCAGCAGGTCAGTGAAAGCGACGTGGCGATTGACAGCGTAGAATGAAGG
DNA 2: CCTTCATTCTACGCTGTCAATCGCCACGTCGCTTTCACTGACCTGCTGACCTTGGGCGGC
B22: NRC3_wobSeed45_DR1_A8G_o1 (dsDNA)
DNA 1: GCTGTCAGAGTTCAAAGGTAACGTAAGTATCCACACGCGATTGACAGCGTAGAATGAAGG
DNA 2: CCTTCATTCTACGCTGTCAATCGCGTGTGGATACTTACGTTACCTTTGAACTCTGACAGC
B23: NRC3_wobSeed101_DR4_C18T_o1 (dsDNA)
DNA 1: GCCCTTACGGGTCACTCTAGGTTATAGCATCGGAGTGCGATTGACAGCGTAGAATGAAGG
DNA 2: CCTTCATTCTACGCTGTCAATCGCACTCCGATGCTATAACCTAGAGTGACCCGTAAGGGC
B24: NRC3_wobSeed21_DR0_A7T_o1 (dsDNA)
DNA 1: GCCGTCTAAGTTCAAGGTAACGTAACAGAAAGCAGCGCGATTGACAGCGTAGAATGAAGG
DNA 2: CCTTCATTCTACGCTGTCAATCGCGCTGCTTTCTGTTACGTTACCTTGAACTTAGACGGC

Biological target: RXRa (Homo sapiens, UniProt P19793)
Sequence (P19793 whole entry): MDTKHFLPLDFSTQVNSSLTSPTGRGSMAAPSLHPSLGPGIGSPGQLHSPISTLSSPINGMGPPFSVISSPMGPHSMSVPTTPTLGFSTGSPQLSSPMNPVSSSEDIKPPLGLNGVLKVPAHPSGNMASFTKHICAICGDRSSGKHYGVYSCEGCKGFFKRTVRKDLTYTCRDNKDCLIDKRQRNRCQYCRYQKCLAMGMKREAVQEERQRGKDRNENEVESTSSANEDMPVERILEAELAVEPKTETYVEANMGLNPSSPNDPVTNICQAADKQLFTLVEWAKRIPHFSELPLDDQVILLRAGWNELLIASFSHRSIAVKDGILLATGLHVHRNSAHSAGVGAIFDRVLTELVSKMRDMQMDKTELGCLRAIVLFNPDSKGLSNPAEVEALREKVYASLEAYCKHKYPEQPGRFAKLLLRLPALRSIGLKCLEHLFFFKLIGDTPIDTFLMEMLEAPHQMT
Assay: no ligand; PBM; 180 nM; PBS pH 7.4, 2% milk, 0.02% Triton X-100, 1 mM DTT, BSA, 0.4 mg/ml salmon testes DNA
Conditions: tags: His cleaved; chain copies: 2; label: surface-attached array probe

First: B1
Second: B2
The binding signal of the first is lower: 8.25 PBM z-score against 500 random probes for the first, 11 PBM z-score against 500 random probes for the second.

Compared with B3, B4 is lower in binding signal: 10.9 PBM z-score against 500 random probes for the first, 7.97 PBM z-score against 500 random probes for the second.

Biological target: LXRa:RXRa (Homo sapiens, UniProt Q13133;P19793 full;full)
Sequence (Q13133 whole entry, chain 1 of 2): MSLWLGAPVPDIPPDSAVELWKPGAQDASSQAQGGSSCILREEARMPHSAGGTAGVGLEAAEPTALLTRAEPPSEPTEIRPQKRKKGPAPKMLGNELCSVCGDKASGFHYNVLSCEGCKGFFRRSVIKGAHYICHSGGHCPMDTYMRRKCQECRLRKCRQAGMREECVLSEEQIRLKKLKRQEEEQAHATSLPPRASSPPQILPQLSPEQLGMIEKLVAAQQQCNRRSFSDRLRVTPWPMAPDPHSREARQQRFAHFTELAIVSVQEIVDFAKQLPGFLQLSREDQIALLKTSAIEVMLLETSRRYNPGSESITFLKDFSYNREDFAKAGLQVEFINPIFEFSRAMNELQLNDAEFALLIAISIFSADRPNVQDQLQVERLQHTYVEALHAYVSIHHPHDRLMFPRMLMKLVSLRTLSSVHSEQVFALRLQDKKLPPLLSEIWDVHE
Sequence (P19793 whole entry, chain 2 of 2): as the sequence (P19793 whole entry) above
Assay: no ligand; PBM; 270 nM : 90 nM RXRa; PBS pH 7.4, 2% milk, 0.02% Triton X-100, 1 mM DTT, BSA, 0.4 mg/ml salmon testes DNA
Conditions: tags: His kept;His cleaved; copies: 1;1; label: surface-attached array probe
Method in brief: (§1)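 Scanned fluorescence from custom Agilent 4×180K protein-binding microarrays was regression-normalized. Binding z-scores use random background probes as reference. Ligand-free nuclear receptor dimers were incubated on the arrays for 1 h and detected with antibodies against each partner (one per run).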

Compared with B1, B2 is higher in binding signal: 7.22 PBM z-score against 500 random probes for the first, 7.91 PBM z-score against 500 random probes for the second.

Going from B3 to B4, the binding signal falls from 7.77 PBM z-score against 500 random probes to 7 PBM z-score against 500 random probes.

Biological target: RARb:RXRa (Homo sapiens, UniProt P10826;P19793 full;full)
Sequence (P10826 whole entry, chain 1 of 2): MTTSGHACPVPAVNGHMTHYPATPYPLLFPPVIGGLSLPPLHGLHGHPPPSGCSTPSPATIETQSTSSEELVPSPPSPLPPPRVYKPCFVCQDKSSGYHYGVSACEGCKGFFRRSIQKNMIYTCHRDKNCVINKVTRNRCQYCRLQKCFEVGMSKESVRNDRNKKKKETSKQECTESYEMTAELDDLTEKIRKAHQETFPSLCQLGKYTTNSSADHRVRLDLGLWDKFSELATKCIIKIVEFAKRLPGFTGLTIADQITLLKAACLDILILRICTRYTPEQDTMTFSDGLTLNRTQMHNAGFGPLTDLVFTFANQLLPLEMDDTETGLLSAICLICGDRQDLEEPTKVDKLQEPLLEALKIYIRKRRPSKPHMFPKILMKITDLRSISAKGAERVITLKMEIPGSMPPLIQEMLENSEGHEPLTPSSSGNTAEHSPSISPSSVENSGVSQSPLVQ
Sequence (P19793 whole entry, chain 2 of 2): as the sequence (P19793 whole entry) above
Assay: as above
Conditions: tags: His kept;His cleaved; copies: 1;1; label: surface-attached array probe
Method in brief: as §1

First: B1
Second: B2
The binding signal of the first is lower: 6.1 PBM z-score against 500 random probes for the first, 6.32 PBM z-score against 500 random probes for the second.

Compared with B3, B4 is lower in binding signal: 6.18 PBM z-score against 500 random probes for the first, 5.81 PBM z-score against 500 random probes for the second.

Biological target: FXR:RXRa (Homo sapiens, UniProt Q96RI1;P19793 full;full)
Sequence (Q96RI1 whole entry, chain 1 of 2): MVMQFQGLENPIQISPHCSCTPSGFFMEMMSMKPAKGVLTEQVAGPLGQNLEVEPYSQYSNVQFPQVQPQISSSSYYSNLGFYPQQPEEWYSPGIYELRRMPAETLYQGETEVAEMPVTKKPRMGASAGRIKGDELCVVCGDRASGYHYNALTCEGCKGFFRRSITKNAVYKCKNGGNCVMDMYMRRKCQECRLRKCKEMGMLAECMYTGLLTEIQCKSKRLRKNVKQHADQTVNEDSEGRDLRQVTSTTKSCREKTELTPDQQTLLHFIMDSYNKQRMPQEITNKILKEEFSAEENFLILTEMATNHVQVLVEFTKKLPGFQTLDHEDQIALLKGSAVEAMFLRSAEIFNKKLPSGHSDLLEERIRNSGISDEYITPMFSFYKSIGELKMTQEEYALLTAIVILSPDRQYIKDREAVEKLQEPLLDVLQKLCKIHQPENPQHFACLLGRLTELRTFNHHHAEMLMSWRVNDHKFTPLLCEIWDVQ
Sequence (P19793 whole entry, chain 2 of 2): as the sequence (P19793 whole entry) above
Assay: as above
Conditions: tags: His kept;His cleaved; copies: 1;1; label: surface-attached array probe
Method in brief: as §1

Going from B1 to B2, the binding signal rises from 8.61 PBM z-score against 500 random probes to 9.14 PBM z-score against 500 random probes.

In the case of B3, the binding signal is reported as 8.93 PBM z-score against 500 random probes.

Biological target: RARg:RXRa (Homo sapiens, UniProt P13631;P19793 full;full)
Sequence (P13631 whole entry, chain 1 of 2): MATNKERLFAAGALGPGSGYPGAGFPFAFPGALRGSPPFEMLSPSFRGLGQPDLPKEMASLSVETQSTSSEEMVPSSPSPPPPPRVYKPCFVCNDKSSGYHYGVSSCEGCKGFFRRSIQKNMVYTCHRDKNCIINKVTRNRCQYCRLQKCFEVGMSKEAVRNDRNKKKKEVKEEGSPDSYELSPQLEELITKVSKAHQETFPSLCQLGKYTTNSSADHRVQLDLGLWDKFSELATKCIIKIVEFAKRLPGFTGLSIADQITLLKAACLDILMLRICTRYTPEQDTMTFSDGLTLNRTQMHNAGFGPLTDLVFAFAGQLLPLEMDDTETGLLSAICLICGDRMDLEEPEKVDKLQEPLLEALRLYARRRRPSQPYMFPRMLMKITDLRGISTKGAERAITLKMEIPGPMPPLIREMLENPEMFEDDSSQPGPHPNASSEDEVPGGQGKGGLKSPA
Sequence (P19793 whole entry, chain 2 of 2): as the sequence (P19793 whole entry) above
Assay: as above
Conditions: tags: His kept;His cleaved; copies: 1;1; label: surface-attached array probe
Method in brief: as §1

Going from B1 to B2, the binding signal rises from 7.92 PBM z-score against 500 random probes to 9.63 PBM z-score against 500 random probes.

Compared with B3, B4 is lower in binding signal: 9.5 PBM z-score against 500 random probes for the first, 9.04 PBM z-score against 500 random probes for the second.

Biological target: PPARa:RXRa (Homo sapiens, UniProt Q07869;P19793 full;full)
Sequence (Q07869 whole entry, chain 1 of 2): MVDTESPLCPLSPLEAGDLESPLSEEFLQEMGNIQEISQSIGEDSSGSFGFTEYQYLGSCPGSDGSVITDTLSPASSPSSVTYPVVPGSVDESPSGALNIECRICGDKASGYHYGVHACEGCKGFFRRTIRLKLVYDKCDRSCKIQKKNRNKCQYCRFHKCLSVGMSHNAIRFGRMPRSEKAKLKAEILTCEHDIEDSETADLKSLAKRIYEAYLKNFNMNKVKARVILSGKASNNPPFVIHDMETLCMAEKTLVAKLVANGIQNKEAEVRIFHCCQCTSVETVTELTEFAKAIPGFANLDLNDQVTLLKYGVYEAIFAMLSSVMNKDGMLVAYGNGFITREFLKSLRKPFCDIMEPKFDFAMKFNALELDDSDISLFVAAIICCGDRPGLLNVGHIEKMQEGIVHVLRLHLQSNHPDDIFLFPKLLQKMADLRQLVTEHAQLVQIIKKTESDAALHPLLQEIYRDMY
Sequence (P19793 whole entry, chain 2 of 2): as the sequence (P19793 whole entry) above
Assay: as above
Conditions: tags: GST kept;His cleaved; copies: 1;1; label: surface-attached array probe
Method in brief: as §1

Going from B1 to B2, the binding signal rises from 6.87 PBM z-score against 500 random probes to 7.54 PBM z-score against 500 random probes.

Biological target: LXRb:RXRa (Homo sapiens, UniProt P55055;P19793 full;full)
Sequence (P55055 whole entry, chain 1 of 2): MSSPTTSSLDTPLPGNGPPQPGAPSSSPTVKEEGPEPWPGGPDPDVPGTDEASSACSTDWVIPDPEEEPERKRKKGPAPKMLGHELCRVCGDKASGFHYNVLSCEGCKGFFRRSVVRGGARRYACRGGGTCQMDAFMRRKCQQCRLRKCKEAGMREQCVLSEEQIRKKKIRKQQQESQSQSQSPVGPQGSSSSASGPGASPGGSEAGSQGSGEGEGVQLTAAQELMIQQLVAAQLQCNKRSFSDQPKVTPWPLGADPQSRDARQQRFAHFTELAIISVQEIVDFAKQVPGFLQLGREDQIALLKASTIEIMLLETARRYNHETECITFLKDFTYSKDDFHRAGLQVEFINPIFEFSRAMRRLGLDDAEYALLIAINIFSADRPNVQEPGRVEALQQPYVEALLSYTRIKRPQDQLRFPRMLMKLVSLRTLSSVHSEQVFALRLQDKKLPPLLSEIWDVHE
Sequence (P19793 whole entry, chain 2 of 2): as the sequence (P19793 whole entry) above
Assay: as above
Conditions: tags: His kept;His cleaved; copies: 1;1; label: surface-attached array probe
Method in brief: as §1

Compared with B1, B2 is higher in binding signal: 6.3 PBM z-score against 500 random probes for the first, 7.7 PBM z-score against 500 random probes for the second.

Going from B3 to B4, the binding signal falls from 7.8 PBM z-score against 500 random probes to 6.15 PBM z-score against 500 random probes.

Biological target: VDR:RXRa (Homo sapiens, UniProt P11473;P19793 full;full)
Sequence (P11473 whole entry, chain 1 of 2): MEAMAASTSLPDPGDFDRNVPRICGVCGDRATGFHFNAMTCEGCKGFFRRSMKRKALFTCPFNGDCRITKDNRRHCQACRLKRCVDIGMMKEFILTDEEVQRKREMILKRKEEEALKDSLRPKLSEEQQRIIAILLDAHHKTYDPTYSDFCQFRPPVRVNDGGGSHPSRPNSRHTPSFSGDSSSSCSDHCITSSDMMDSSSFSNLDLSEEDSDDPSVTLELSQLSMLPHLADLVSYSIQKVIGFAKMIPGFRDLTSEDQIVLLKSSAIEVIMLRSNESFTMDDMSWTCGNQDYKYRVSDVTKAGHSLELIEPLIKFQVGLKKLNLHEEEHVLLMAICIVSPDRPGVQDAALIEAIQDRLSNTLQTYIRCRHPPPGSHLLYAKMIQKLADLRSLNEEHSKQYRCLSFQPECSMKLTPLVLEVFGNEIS
Sequence (P19793 whole entry, chain 2 of 2): as the sequence (P19793 whole entry) above
Assay: as above
Conditions: tags: His kept;His cleaved; copies: 1;1; label: surface-attached array probe
Method in brief: as §1

Compared with B1, B2 is lower in binding signal: 7.33 PBM z-score against 500 random probes for the first, 7.1 PBM z-score against 500 random probes for the second.

First: B3
Second: B4
The binding signal of the first is higher: 7.13 PBM z-score against 500 random probes for the first, 6.58 PBM z-score against 500 random probes for the second.

Biological target: PXR:RXRa (Homo sapiens, UniProt O75469;P19793 full;full)
Sequence (O75469 whole entry, chain 1 of 2): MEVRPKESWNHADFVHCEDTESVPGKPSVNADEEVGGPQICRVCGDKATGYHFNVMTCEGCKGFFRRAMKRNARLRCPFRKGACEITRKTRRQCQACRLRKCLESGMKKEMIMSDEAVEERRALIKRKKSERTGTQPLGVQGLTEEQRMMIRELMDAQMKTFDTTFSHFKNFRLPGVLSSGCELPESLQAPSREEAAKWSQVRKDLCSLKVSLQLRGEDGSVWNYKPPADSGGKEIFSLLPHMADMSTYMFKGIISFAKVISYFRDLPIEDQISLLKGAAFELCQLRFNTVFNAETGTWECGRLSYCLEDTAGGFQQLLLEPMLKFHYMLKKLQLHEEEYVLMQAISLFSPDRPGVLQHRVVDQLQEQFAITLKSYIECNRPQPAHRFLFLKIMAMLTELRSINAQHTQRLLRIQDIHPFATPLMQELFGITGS
Sequence (P19793 whole entry, chain 2 of 2): as the sequence (P19793 whole entry) above
Assay: as above
Conditions: tags: His kept;His cleaved; copies: 1;1; label: surface-attached array probe
Method in brief: as §1

Compared with B5, B6 is higher in binding signal: 3.66 PBM z-score against 500 random probes for the first, 6.66 PBM z-score against 500 random probes for the second.

Going from B7 to B8, the binding signal falls from 3.76 PBM z-score against 500 random probes to 3.69 PBM z-score against 500 random probes.

Going from B9 to B10, the binding signal rises from 3.54 PBM z-score against 500 random probes to 3.74 PBM z-score against 500 random probes.

Going from B11 to B12, the binding signal rises from 3.57 PBM z-score against 500 random probes to 6.8 PBM z-score against 500 random probes.

First: B13
Second: B14
The binding signal of the first is higher: 7.41 PBM z-score against 500 random probes for the first, 3.72 PBM z-score against 500 random probes for the second.

First: B15
Second: B16
The binding signal of the first is lower: 3.61 PBM z-score against 500 random probes for the first, 7.42 PBM z-score against 500 random probes for the second.

Going from B17 to B18, the binding signal falls from 6.52 PBM z-score against 500 random probes to 3.7 PBM z-score against 500 random probes.

First: B19
Second: B20
The binding signal of the first is higher: 3.62 PBM z-score against 500 random probes for the first, 3.55 PBM z-score against 500 random probes for the second.

First: B21
Second: B22
The binding signal of the first is lower: 3.73 PBM z-score against 500 random probes for the first, 6.41 PBM z-score against 500 random probes for the second.

First: B23
Second: B24
The binding signal of the first is higher: 3.67 PBM z-score against 500 random probes for the first, 3.59 PBM z-score against 500 random probes for the second.
